The labels stand for the following.
B1: MPE33_S36A (antibody, V domains shown)
VH: QVQLQESGPGLVKPSQTLSLTCTVSGDSISNGAYCWNWVRQPAGKGLEWIGRIYPIGNTNYNPSLKSRVTISLDTSKNQFSLKLASVTAADTAVYYCAREARIFEGYYYYYYGLDVWGQGTTVTVSS
VL: EIVLTQSPATLSLSPGERATLSCRASQTISSYLAWYQQKPGQAPRLLISDVSKRATGIPARFSGSGSGTDFTLTISSLEPEDFAVYYCHQRSNWDTFGQGTKLEIK
B2: MPE33_C38Y (antibody, V domains shown)
VH: B1 VH with A33S, C35Y
VL: B1 VL
B3: MPE33_N34Q (antibody, V domains shown)
VH: B1 VH with N31Q, A33S
VL: B1 VL
B4: MPE33_N34S (antibody, V domains shown)
VH: B1 VH with N31S, A33S
VL: B1 VL
B5: MPE33_C38S (antibody, V domains shown)
VH: B1 VH with A33S, C35S
VL: B1 VL
B6: MPE33_N34S_C38Y (antibody, V domains shown)
VH: B1 VH with N31S, A33S, C35Y
VL: B1 VL
B7: MPE33_C38A (antibody, V domains shown)
VH: B1 VH with A33S, C35A
VL: B1 VL
B8: MPE8 (antibody, V domains shown)
VH: EVQLVESGGGLVKPGGSLRLSCAASGFTFSSYSMNWVRQAPGKGLEWVSSISASSSYSDYADSAKGRFTISRDNAKTSLFLQMNSLRAEDTAIYFCARARATGYSSITPYFDIWGQGTLVTVSS
VL: QSVVTQPPSVSGAPGQRVTISCTGSSSNIGAGYDVHWYQQLPGTAPKLLIYDNNNRPSGVPDRFSASKSGTSASLAITGLQAEDEADYYCQSYDRSLSGVFGTGTKVTVL

Here are results for eight molecules from patent US20240034772A1 (published 2024).

Substitutions are numbered along the chain they refer to.

One test deals with MPV pre-fusion F protein (conformationally stabilized, CAN97-83 MPV strain) (human metapneumovirus (hMPV), strain …, UniProt Q6WB98 19-489). In words: ELISA. (In general: In an ELISA, binding on a coated surface is turned into a signal by an enzyme label.)
Sequence of MPV pre-fusion F protein (conformationally stabilized, CAN97-83 MPV strain) (Q6WB98 19-489): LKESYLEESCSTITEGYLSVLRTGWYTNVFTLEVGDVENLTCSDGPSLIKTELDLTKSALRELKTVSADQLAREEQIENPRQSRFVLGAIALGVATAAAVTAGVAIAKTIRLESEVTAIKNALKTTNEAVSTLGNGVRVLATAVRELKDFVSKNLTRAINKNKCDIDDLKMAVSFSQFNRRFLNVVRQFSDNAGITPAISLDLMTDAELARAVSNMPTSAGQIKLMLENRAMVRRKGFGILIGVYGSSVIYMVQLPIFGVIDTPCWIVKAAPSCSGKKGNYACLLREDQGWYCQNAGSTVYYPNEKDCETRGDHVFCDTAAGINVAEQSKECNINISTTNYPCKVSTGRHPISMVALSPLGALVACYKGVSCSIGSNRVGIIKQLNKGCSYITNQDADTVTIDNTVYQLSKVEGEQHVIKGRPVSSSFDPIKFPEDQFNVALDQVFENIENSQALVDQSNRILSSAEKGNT
With B1, it took 2.31 ng/mL to reach a half-maximal effect (EC50).
The same measure, in the same setting: under B2 stands 2.5 ng/mL.
Same read-out and setting: the figure for B3 is 1.96 ng/mL; for B4 it is 1.56 ng/mL.
Same read-out and setting: under B5 stands 2.39 ng/mL.
As for B6, the EC50 (usually the midpoint of the concentration-response curve) came out at 2.87 ng/mL.
Same read-out and setting: the figure for B7 is 1.51 ng/mL.

The target in another test is PRE (human metapneumovirus (hMPV), strain …, UniProt Q6WB98 19-489). The experiment in a line: ELISA; pre-fusion F.
Sequence of PRE (Q6WB98 19-489): as above
The molecule B8 had an EC50 of 34.8 ng/mL.

The target of another test is POST (human metapneumovirus (hMPV), strain …, UniProt Q6WB98 19-489). The experiment in a line: ELISA; post-fusion F.
Sequence of POST (Q6WB98 19-489): as above
Molecule B8 yielded a half-maximal effective concentration (EC50) of 769000 ng/mL.
